Measured values reported in the FLAb antibody collection (doi:10.1101/2023.12.08.570889).
Changes are numbered by the printed parent chain.

B1: unnamed (protein)
chain 1: EVQLLESGGGLVQPGGSLRLSCAASGFTFSQYGMDWVRQAPGKGLEWVSGIGPSGGSTVYADSVKGRFTISRDNSKNTLYLQMNSLRAEDTAVYYCARDGSAYYYAFDVWGQGTTVTVSS
chain 2: DIQMTQSPSSLSASVGDRVTITCQASQDISNYLNWYQQKPGKAPKLLIYDASNLETGVPSRFSGSGSGTDFTFTISSLQPEDIATYYCQQADSFPVTFGGGTKVEIK
B2: unnamed (protein)
chain 1: B1 chain 1 with S101P, A106G
chain 2: B1 chain 2
B3: unnamed (protein)
chain 1: B1 chain 1 with S101P, A102S
chain 2: B1 chain 2
B4: unnamed (protein)
chain 1: B1 chain 1 with A97T, S101P, V109I
chain 2: B1 chain 2
B5: unnamed (protein)
chain 1: B1 chain 1 with A97T, S101P, V109Y
chain 2: B1 chain 2
B6: unnamed (protein)
chain 1: B1 chain 1 with S101P, V109Y
chain 2: B1 chain 2
B7: unnamed (protein)
chain 1: B1 chain 1 with A97T, D99G, S101P, A102S, Y103W
chain 2: B1 chain 2
B8: unnamed (protein)
chain 1: B1 chain 1 with A97T, S101P, A102S, A106G
chain 2: B1 chain 2
B9: unnamed (protein)
chain 1: B1 chain 1 with A97T, S101P, Y103W, V109Y
chain 2: B1 chain 2
B10: unnamed (protein)
chain 1: B1 chain 1 with A97T, S101P, A102W
chain 2: B1 chain 2
B11: unnamed (protein)
chain 1: B1 chain 1 with A97T, S101P, Y103W
chain 2: B1 chain 2
B12: unnamed (protein)
chain 1: B1 chain 1 with A97T, S101P, A102Y, V109Y
chain 2: B1 chain 2
B13: unnamed (protein)
chain 1: B1 chain 1 with S101P, A102S, Y103W
chain 2: B1 chain 2
B14: unnamed (protein)
chain 1: B1 chain 1 with A97T, D99G, S101P, A106G, V109Y
chain 2: B1 chain 2
B15: unnamed (protein)
chain 1: B1 chain 1 with S101P
chain 2: B1 chain 2
B16: unnamed (protein)
chain 1: B1 chain 1 with A97T, S101G
chain 2: B1 chain 2
B17: unnamed (protein)
chain 1: B1 chain 1 with A97T, S101R, A102S
chain 2: B1 chain 2
B18: unnamed (protein)
chain 1: B1 chain 1 with A97T, D99G, S101P, V109Y
chain 2: B1 chain 2
B19: unnamed (protein)
chain 1: B1 chain 1 with D99G, S101P, V109I
chain 2: B1 chain 2

Target: FXI
Assay: Kd (SPR)

| Binder | Kd [nM] |
| --- | --- |
| B1 | 270 |
| B2 | 175 |
| B3 | 134 |
| B4 | 109 |
| B5 | 147 |
| B6 | 106 |
| B7 | 210 |
| B8 | 95.3 |
| B9 | 78.2 |
| B10 | 79.8 |
| B11 | 51.7 |
| B12 | 68 |
| B13 | 59.9 |
| B14 | 148 |
| B15 | 84 |
| B16 | 135 |
| B17 | 750 |
| B18 | 306 |
| B19 | 430 |
